Measurements: publication PMC7118729

Biological target: SARS-CoV non-structural protein 15 (Nsp15) [change] (SARS-CoV)
Test: SEC

Substance: SARS-CoV non-structural protein 15 (Nsp15) [change] (enzyme)
- stoichiometry N: 3
